Data: US6576607B1, “Methods using CNS neurite outgrowth modulators” (Acorda Therapeutics, priority 1995, dated 2003)

Assays:
dopaminergic neurons [1] = test: Protection of dopaminergic neurons from MPP+ neurotoxicity; type: cell-based, rat; details: forskolin combined with PDE-IV inhibitor NQ-A
Protocol: (§1) Cell culture, dopamine uptake and treatment with MPP+have been described (Hartikka et al., 1992). Primary cultures containing dopaminergic neurons were prepared from the ventral mesencephalon of 14-day-old fetal rats and plated in 24 well plates. A culture well usually contained 6×10^5 cells/well, of which 3-5% were dopaminergic. Duplicate cultures were prepared for dopamine uptake or tyrosine hydroxylase staining. Dopamine uptake was measured using tritiated dopamine at concentrations of 50 nM (sp, act. 45 Ci/mmol, New England Nuclear). The survival of dopaminergic neurons in the culture was assayed by counting tyrosine hydroxylase (TH) immunopositive neurons, stained with a monoclonal antibody to TH (Boehringer Mannheim).
(§2) The monoclonal L1 antibodies 327 and 557.B6 (referred to as 557) were added to the culture medium on the day of plating at concentrations of 7.5-120 μg/ml and left for 3 days. In addition to treatment of the culture medium with antibodies, they were also substrate coated prior to plating of the cells, as described (Appel et al., 1993). In experiments with MPP^+ (active metabolite of methyl-phenyl-tetrahydropyridine, MPTP), antibodies or cAMP-elevating agents were added to the culture medium of 5-day-old cultures, followed by 1 μM MPP^+ on day 6 and cells were fixed on day 8 for immunocytochemistry. […]

dopaminergic neurons [2] = test: [3H]dopamine uptake in primary cultures of embryonic ventral mesencephalon; type: cell-based, rat; details: 0.5 μM, 3 days
Protocol: as §1, §2

cerebellar granule cells = details: 5 days in culture
hippocampal neurons [3] = test: Neurite outgrowth assay, hippocampal neurons; type: cell-based, rat; details: hippocampal neurons from 18-day embryos
Protocol: The tissue culture wells and glass cover slips (1.1 cm diameter) were incubated overnight at 4° C. with 0.01% poly-L-lysine (PLL) and washed three times with distilled water. L1-Fc or CHL1-Fc diluted in Ca/Mg-free Hank's Balanced Salt Solution were applied overnight at 4° C., at the concentrations indicated in the text. The wells and coverslips were washed twice with Hank's and once with seeding medium just before plating cells.
(§3) Hippocampal neurons were prepared from 18-day rat embryos as described (Lochter, A., et al (1991); Brewer, G. J., et al (1993)). Neurons were re-suspended and plated in serum-free Dulbecco's modified Eagle's medium/Nutrient Mix F12 (Life Technologies, Inc.) supplemented with N2 components, 33 mM D-glucose, 1 mM pyruvate, 1 mg/ml BSA, and 5 mM Hepes.
Cerebellar granule cells and hippocampal neurons were seeded into pro-treated 96-well tissue culture plates at a density of 1×10^4 cells or 5×10^3 cells per well, respectively, in 100 μl medium. Soluble fusion proteins were added, when used, 2 hours after seeding the cells, to avoid effects on initial adhesion. […] The lengths of individual neurite were analyzed and quantified with an IBAS image analysis system (Kontron). […] For each cell measured, the total length of all neurites was determined. In each experiment, 50 cells in each of three wells were analyzed. […]

hippocampal neurons [4] = test: Cell survival assay (MTT), embryonic hippocampal neurons; type: cell-based, rat; details: 5 days in culture
Protocol: as §3

injured rat spinal cord = test: Rat spinal cord contusion injury (NYU impactor), intrathecal infusion; type: in vivo; details: 15 μg/ml intrathecally, 6 rats without CyA; unpublished experiments
Protocol: The NYU Impactor and rat contusion models of spinal cord injury have been extensively described. [Kwo S, Young W, DeCrescito V (1989) Journal of Neurotrauma 6:13-24; Huang P, Young W (1994). Journal of Neurotrauma 11: 547-62; Basso M, Beattie M, Bresnahan J, Anderson DK, Faden A, et al. (1996) Journal of Neurotrauma in press; Constantini S, Young W (1994) Journal of Neurosurgery 80: 97-111]. Rats were anesthetized with an intraperitoneal dose of pentobarbital (40 mg/kg female, 60 mg/kg male), suspended with clamps placed on the T8 and T11 dorsal processes, and injured at one hour after induction of anesthesia. The impactor drops a 10 g rod a distance of 12.5, 25.0, or 50.0 mm onto the dorsal surface of T9-10 spinal cord, exposed by laminectomy. Two digital optical potentiometers measured the trajectory of the falling rod and vertebral movement with a precision of ±20 μm and ±20 μsec. Cord compression rate (Cr) was calculated from the distance of cord compression divided by time required for compression. […]
The rats received daily Keflin® (15 mg/kg b.i.d. subcutaneous) for one week after injury and then Baytril® (5 mg/kg b.i.d. subcutaneous) for 10 days for recurrent urinary tract infections. […] The rats were assessed weekly for locomotor recovery, using the Basso-Beattie-Bresnahan (BBB) scale developed at Ohio State University. […]

`COC(=O)c1cccc(-n2c(=O)n(Cc3ccccc3)c(=O)c3ccccc32)c1` [NQ-A, 1-(3-carbomethoxyphenyl)-3-benzyl-quinazoline-2,4-dione] was tested, and the “protection from MPP+ toxicity” value (dopaminergic neurons [1]) was “effectively protects against MPP^+ toxicity” and the dopamine uptake (dopaminergic neurons [2]) was “slight elevation of dopamine uptake”.

B1: CHL1-Fc: extracellular domain of mouse CHL1 fused to the Fc portion of human immunoglobulin IgG1 (protein)
chain: EIPLSVQQVPTIVKQSYVQVAFPFDEYFQIECEAKGNPEPIFSWTKDDKPFDLSDPRIIAANNSGTFKIPNEGHISHFQGKYRCFASNRLGTAVSEEIEFIVPGVPKFPKEKIEPIDVEEGDSIVLPCNPPKGLPPLHIYWMNIELEHIEQDERVYMSQRGDLYFANVEENDSRNDYCCFAAFPKLRTIVQKMPMKLTVNSSNSIKQRKPKLLLPPAQMGSLSAKTVLKGDTLLLECFAEGLPTPHIQWSKPGSELPEGRATIEVHEKTLKIENISYQDRGNYRCTANNLLGKASHDFHVTVEEPPRWKKKPQSAVYSTGSSGILLCEAEGEPQPTIKWRLNGLPIEKHPFPGDFMFPREISFTNLLFNHTGVYQCEASNIHGTILANANIDVIDVIPLIKTKNEENYATVVGYSAFLHCEYFASPKATVVWEVADETHPLEGDRYHTHENGTLEIYRTTEEDAGSYSCWVDNAMGKAVITANLDIRNATKLRVSPKNPRIPKSHVLELYCESQCDSHLKHSLKLSWSKDGEAFEMNGTEDGRIVIDGAYLTISNITAEDQGVYSCSAQTSLDSTSEKTQVTVLGVPDPPETFTCQKDKNRSVRLLREAGDDHNSKSASTIVEFEGNREEPGKWEELTRVQGEETDVVLSLAPYVRYQFRVTAVNEVGRSHASLPSDHHETPPAAPDKNPQNIRVQASQPKEMIIKWEPLKSMEQNGPGLEYKVSWKPQGAPEEWEEEIVTNHTLRVMTPTVYAPYDVKVQAINQLGSSPDPQPVTLYSGEDYPSTAPVIQRVDVMNSTLVKVTWSSIPKETVHGLLRGYQINWWKTKSLLDGRTHPKEVNILRFSGQRNSGMVPSLDPFSEFHLTVLAYNSKGAGPESEPYIFQTPEGVPEQPSFLKVIKVDKDTATLSWGLPKKLNGNLTGYLLQYQIINDTYELGELNEINVTTPSKSSWHLSNLNSTTKYKFYLRACTSRGCGKPISEEGATLGEGSKGIRKITEGVNVTQKIHPVEVLVPGAEHIVHLMTKNWGDNDSIFQDVIETRGREYAGLYDDISTQGW
modifications: left off: a dimerising Fc or GST
notes: extracellular domain of mouse CHL1 fused to the Fc portion of human immunoglobulin IgG1
In the case of B1, the “morphological features of cultures” value (cerebellar granule cells) is reported as “denser, generally healthier-looking cultures”, the neurite outgrowth (hippocampal neurons [3]) is reported as “a stimulation was observed” and the “concentration of maximal effect on survival” value (hippocampal neurons [4]) is reported as 1 µg/mL. The survival (hippocampal neurons [4]) was “enhanced survival”.

B2: NgCAM: immunogenic chick NgCAM given intrathecally (protein, UniProt Q03696 21-1266, looked up)
Neuronal-glial cell adhesion …: ITIPPEYGAHDFLQPPELTEEPPEQLVVFPSDDIVLKCVATGNPPVQYRWSREDQPFVPEEHGGVSVVPGSGTLVINATLAARLQGRFRCFATNALGTAVSPEANVIAENTPQWPKEKVTPVEVEEGDPVVLPCDPPESAVPPKIYWLNSDIVHIAQDERVSMGQDGNLYFSNAMVGDSHPDYICHAHFLGPRTIIQKEPLDLRVAPSNAVRSRRPRLLLPRDPQTTTIALRGGSVVLECIAEGLPTPWVRWRRLNGPLLPGGVGNFNKTLRLWGVTESDDGEYECVAENGRGTARGTHSVTVEAAPYWVRRPQSGVFGPGETARLDCEVGGKPRPQIQWSINGVPIEAAGAERRWLRGGALVLPELRPNDSAVLQCEARNRHGPLLANAFLHVVELPLRMLTADEQRYEVVENQTVFLHCRTFGAPAPNVEWLTPTLEPALQDDRSFVFTNGSLRVSAVRGGDGGVYTCMAQNAHSNGSLTALLEVRAPTRISAPPRSATAKKGETVTFHCGATFDPAVTPGELRWLRGGQPLPDDPRYSVAAEMTVSNVDYGDEGTIQCRASTPLDSAEAEAQLRVVGRPPSRDLQVMEVDEHRVRLSWTPGDDHNSPIEKFVVEEEEEREDLQRGFGAADVPGQPWTPPLPLSPYGRFPFRVVAVNAYGRGEHHAPSAPIETPPAAPERNPGGVHGEGNETGNLVITWEPLPPQAWNAPWARYRVQWRPLEEPGGGGPSGGFPWAESTVDAPPVVVGGLPPFSPFQIRVQAVNGAGKGPEATPGVGHSGEDLPLVYPENVGVELLNSSTVRVRWTLGGGPKELRGRLRGFRVLYWRLGWVGERSRRQAPPDPPQIPQSPAEDPPPFPPVALTVGGDARGALLGGLRPWSRYQLRVLVFNGRGDGPPSEPIAFETPEGVPGPPEELRVERLDDTALSVVERRTFKRSITGYVLRYQQVEPGSALPGGSVLRDPQCDLRGLNARSRYRLALPSTPRERPALQTVGSTKPEPPSPLWSRFGVGGRGGFHGAAVEFGAAQEDDVEFEVQFMNKSTDEPWRTSGRANSSLRRYRLEGLRPGTAYRVQFVGRNRSGENVAFWESEVQTNGTVVPQPGGGVCTKGWFIGFVSSVVLLLLILLILCFIKRSKGGKYSVKDKEDTQVDSEARPMKDETFGEYRSLESEAEKGSASGSGAGSGVGSPGRGPCAAGSEDSLAGYGGSGDVQFNEDGSFIGQYRGPGAGPGSSGPASPCAGPPLD
B2 was tested, and the “locomotor recovery and corticospinal tract regeneration” value (injured rat spinal cord) was “did not result in locomotor recovery or evidence of regenerating corticospinal tracts”.
